Results as given in patent US20250215108A1.
“And” between values parts separate entries of the source, which are not always exact repeats. Equal entries are not always repeated.

Experiments:
[1] = target: SIRPγ on peripheral human CD3+ T cells (human) (UniProt Q9P1W8); assay: flow cytometry on peripheral human CD3+ T cells, 10 µg/ml; Exp 1 HV1
[2] = target: SIRPγ on peripheral human CD3+ T cells (human) (UniProt Q9P1W8); assay: flow cytometry on peripheral human CD3+ T cells, 10 µg/ml; Exp 1 HV2
[3] = target: recombinant hSIRPa (Sino Biologicals, reference 10975-H08H) (human) (UniProt P78324); assay: ELISA (ED50), immobilized hSIRPa, anti-mouse Fc detection
[4] = target: recombinant hSIRPa-His (Sino Biologicals, reference 11612-H08H) (human) (UniProt P78324); assay: SPR (Biacore 3000); SIRPa-His immobilised on a CM5 chip (500 RU), antibody injected; 3 min association, 10 min dissociation
Chain of recombinant hSIRPa-His (Sino Biologicals, reference 11612-H08H) (human) (P78324 31-370, form in doubt): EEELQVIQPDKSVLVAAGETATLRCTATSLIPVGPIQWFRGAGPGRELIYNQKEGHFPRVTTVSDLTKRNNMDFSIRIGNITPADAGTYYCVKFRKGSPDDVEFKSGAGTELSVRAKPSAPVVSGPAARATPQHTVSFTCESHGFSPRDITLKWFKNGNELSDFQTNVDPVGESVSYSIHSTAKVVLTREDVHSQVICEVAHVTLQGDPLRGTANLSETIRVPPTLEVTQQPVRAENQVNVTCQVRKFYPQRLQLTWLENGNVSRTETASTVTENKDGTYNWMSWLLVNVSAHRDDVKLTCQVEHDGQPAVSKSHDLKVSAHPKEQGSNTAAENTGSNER

Chain of SIRPγ on peripheral human CD3+ T cells (human) (Q9P1W8 29-387): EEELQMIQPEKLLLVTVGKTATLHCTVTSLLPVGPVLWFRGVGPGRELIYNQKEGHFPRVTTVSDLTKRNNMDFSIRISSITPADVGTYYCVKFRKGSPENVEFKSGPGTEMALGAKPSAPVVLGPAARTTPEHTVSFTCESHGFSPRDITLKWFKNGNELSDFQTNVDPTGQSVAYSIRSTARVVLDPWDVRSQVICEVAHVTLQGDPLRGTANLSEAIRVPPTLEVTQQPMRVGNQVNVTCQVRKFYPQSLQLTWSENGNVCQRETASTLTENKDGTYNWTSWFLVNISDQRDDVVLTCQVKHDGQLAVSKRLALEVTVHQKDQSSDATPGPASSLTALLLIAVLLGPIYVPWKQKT
Chain of recombinant hSIRPa (Sino Biologicals, reference 10975-H08H) (human) (P78324 other isoform, or with tags, fused parts or gaps H08H H08H limits assumed): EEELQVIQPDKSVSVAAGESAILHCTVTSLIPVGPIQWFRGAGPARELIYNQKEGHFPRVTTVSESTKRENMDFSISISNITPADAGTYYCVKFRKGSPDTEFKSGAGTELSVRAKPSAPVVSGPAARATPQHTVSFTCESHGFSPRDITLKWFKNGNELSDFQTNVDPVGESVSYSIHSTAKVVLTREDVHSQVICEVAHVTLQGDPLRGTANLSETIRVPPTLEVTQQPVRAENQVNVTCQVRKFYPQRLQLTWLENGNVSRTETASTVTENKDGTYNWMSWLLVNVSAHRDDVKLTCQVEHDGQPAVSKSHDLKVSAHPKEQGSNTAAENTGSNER

| Substance | % of positive T-cells [1] [%] | % of positive T-cells [2] [%] | EC50 [3] | Kd [4] [nM] | koff [4] [s⁻¹] | kon [4] [M⁻¹ s⁻¹] |
| --- | --- | --- | --- | --- | --- | --- |
| LSB2.20 (specific anti-SIRPγ antibody) | 91.4 | 98.4 |  |  |  |  |
| SE5A5 (BioLegend BLE323802), antibody recognizing SIRP a/B | 3.72 | 7.69 | 0.16 nM and 0.024 µg/mL | 38.7 | 0.000949 | 24500 |
| anti-SIRPa antibody SE7C2 (Santa Cruz sc-23863) |  |  |  | 1670 | 0.01 | 5980 |
| anti-SIRPb antibody B4B6 | 0.87 | 0.25 |  |  |  |  |
